{"source": "patent US20080026998", "about": "(published 2008)", "key": {"[1]": {"biological_target": "T1, plasmin (human, UniProt P00747)", "T1 chain": "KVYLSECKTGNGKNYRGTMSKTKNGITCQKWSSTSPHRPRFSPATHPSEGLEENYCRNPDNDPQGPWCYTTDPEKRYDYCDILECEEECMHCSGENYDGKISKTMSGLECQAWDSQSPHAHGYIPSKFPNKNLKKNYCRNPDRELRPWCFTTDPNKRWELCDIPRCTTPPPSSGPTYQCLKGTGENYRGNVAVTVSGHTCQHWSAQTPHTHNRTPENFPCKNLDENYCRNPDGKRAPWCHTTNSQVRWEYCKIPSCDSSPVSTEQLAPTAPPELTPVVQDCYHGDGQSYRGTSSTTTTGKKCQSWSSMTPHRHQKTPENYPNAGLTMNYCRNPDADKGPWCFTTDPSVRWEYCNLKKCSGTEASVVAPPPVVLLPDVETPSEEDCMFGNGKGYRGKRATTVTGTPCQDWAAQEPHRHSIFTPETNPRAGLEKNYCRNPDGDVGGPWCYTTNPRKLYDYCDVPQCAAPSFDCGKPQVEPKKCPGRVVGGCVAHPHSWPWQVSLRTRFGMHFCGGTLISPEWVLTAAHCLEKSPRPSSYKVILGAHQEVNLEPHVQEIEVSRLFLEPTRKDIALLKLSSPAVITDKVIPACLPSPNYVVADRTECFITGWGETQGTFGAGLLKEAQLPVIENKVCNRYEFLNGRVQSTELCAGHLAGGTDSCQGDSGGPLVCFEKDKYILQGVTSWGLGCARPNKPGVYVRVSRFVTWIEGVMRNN"}, "[2]": {"biological_target": "T1, plasmin"}, "[3]": {"biological_target": "T1, plasmin"}, "[4]": {"biological_target": "T1, plasmin"}, "[5]": {"biological_target": "T1, plasmin"}}, "note": "Read-outs that look alike come from different tables or passages of the source.", "data": [{"binder": "KD1 wild-type (protein) DAAQEPTGNNAEICLLPLDYGPCRALLLRYYYDRYTQSCRQFLYGGCEGNANNFYTWEACDDACWRIEKVPKV", "values": [{"measurement": "Ki", "setting": "[1]", "value": 5.3, "unit": "nM"}, {"measurement": "Ki", "setting": "[2]", "value": 6.4, "unit": "nM"}, {"measurement": "Ki", "setting": "[3]", "value": 7.5, "unit": "nM"}, {"measurement": "Ki", "setting": "[4]", "value": 9.7, "unit": "nM"}]}, {"binder": "KD1 R24K (protein) DAAQEPTGNNAEICLLPLDYGPCKALLLRYYYDRYTQSCRQFLYGGCEGNANNFYTWEACDDACWRIEKVPKV", "values": [{"measurement": "Ki", "setting": "[1]", "value": 1.1, "unit": "nM"}, {"measurement": "Ki", "setting": "[2]", "value": 1.02, "unit": "nM"}, {"measurement": "Ki", "setting": "[3]", "value": 4.6, "unit": "nM"}, {"measurement": "Ki", "setting": "[4]", "value": 1.33, "unit": "nM"}]}, {"binder": "KD1 R24K/L26R (protein) DAAQEPTGNNAEICLLPLDYGPCKARLLRYYYDRYTQSCRQFLYGGCEGNANNFYTWEACDDACWRIEKVPKV", "values": [{"measurement": "Ki", "setting": "[1]", "value": 0.625, "unit": "nM"}, {"measurement": "Ki", "setting": "[5]", "value": 2.2, "unit": "nM"}, {"measurement": "Ki", "setting": "[2]", "value": 1.25, "unit": "nM"}, {"measurement": "Ki", "setting": "[3]", "value": 1.5, "unit": "nM"}, {"measurement": "Ki", "setting": "[4]", "value": 1.06, "unit": "nM"}]}]}
